From the nanobody polyreactivity screen of Harvey et al. (2022)

Test: yeast display, Sf9 membrane polyspecificity reagent, FACS + sequencing; frameworks hold sequencing errors
Summary of the method: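 Sorting gates, low and high (top ~1%), were placed on anti-HA fluorescence to track expression and on streptavidin fluorescence to track reagent binding. A clone's polyreactivity label is taken from the gate it came out of. The reagent was 10% biotinylated, detergent-solubilized Sf9 membrane, applied for 1 hour at 4 °C to galactose-induced yeast display cells.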

Sequence	polyreactivity (PSR sort gate)
QVQLVESGGGLVQAGGSLRLSCAASGRTLGYNAMGWYRQAPGKARELVASINSGVSTNYADSVQGRFTISRDNAKNTVYLQMNSLKPEDTAVYYCAAEKYGRGAGREGWESDYWGQGTQVTVSS	low polyreactivity
QVQLVESGGGLVQAGGSLRLSCAASGRTLGYYAKGWYRQAPGKERELVAAISRSGGSTYYADSVKGRFTISRDNAKNTVYLQMNSLKPEDTAVYYCAATYGPSRYRYDYWGQGTQVTVSS	high polyreactivity
QVQLVESGGGLVQAGGSLRLSCAASGRTLIYYAMGWYRQAPGKERELVAAISSSGTSTYYADSVKGRFTISRDNAKNTVYLQMNSLKPEDTAVYYCAADGRTLGRRYYYWGQGTQVTVSS	high polyreactivity
QVQLVESGGGLVQAGGSLRLSCAASGRTLLLNTMGWYRQAPGKERELVAAISWRDGSTYYADSVKGRFTFSRDKAKNTVYLLMNSLKPEDTAVYYCNARLSGRSQYDVRFDYWGQGTQVTVSS	low polyreactivity
QVQLVESGGGLVQAGGSLRLSCAASGRTLLPNAMGWSRQAPGKERELVASIRDGGDTNYADSVKGRFTISRDNAKNTVYLQMNSLKPEDTAVYYCNADWWAYYSFGHEYWGQGTQVTVSS	low polyreactivity
QVQLVESGGGLVQAGGSLRLSCAASGRTLLSPNAMGWYRQAPGKARELVAVISWSDGSTYYADSVKGRFTISRDNANNTVYLQMNSLKPEDTAVYYSAASDPFEASQYKYDYWGQGTQVTVSS	low polyreactivity
QVQLVESGGGLVQAGGSLRLSCAASGRTLNAYAMGWYRHAPGKERELVAAITWDDGSTYYAHSVKGRFTISRDNAKNTVSLQMNSLKPEDSAVYYCAAYAYNAIEYGYWGQGTQVNVSS	low polyreactivity
QVQLVESGGGLVQAGGSLRLSCAASGRTLPFNAMGWYRQAPGKERELVAAITRGGSTNYADSVKGRFTISRDNAKNTVYLQMNSLKPEDTAVYYCAARRYAWYGYRAYDYWGQGTQVTVSS	high polyreactivity
QVQLVESGGGLVQAGGSLRLSCAASGRTLQHYAMGWYRQAPGKERELVAGITKNGGSTYYADSVKGRFTISRDNAKNTVYLQMNSLKPEDTAVYYCAKRWGGYSIPLDYDYWGQGTQVTVSS	low polyreactivity
QVQLVESGGGLVQAGGSLRLSCAASGRTLQWYAMGWYRQAPGKERELVATISSGGSTKYADSVKGRFTISRDNAKNTVYLQMNSLKPEDTAVYYCNAQPYGIYYHRYYYWGQGTQVTVSS	low polyreactivity
QVQLVESGGGLVQAGGSLRLSCAASGRTLRRYAMGWYRQAPGKERELVAAITSGGTTNYADSVKGRFTISRDNAKNTVYLQMNSLKPEDTAVYYCNARKSSGLSSYDWYSWEYGYWGQGTQVTVSS	low polyreactivity
QVQLVESGGGLVQAGGSLRLSCAASGRTLRYYAMGWYRQAPGKDRELVASISIGGSTYYADSVKGRFTISRDNAKNTVYLQMTSLKPEDTAVYYGATDYSNSGYGYWGQGTQVTVSS	low polyreactivity
QVQLVESGGGLVQAGGSLRLSCAASGRTLRYYAMGWYRQAPGTERELVASISIGGSTYYADSVKGRFTISRDNAKNTVYLQMHSQKPEATAVYYCATDYSTSGYGYWGQGTQVTVST	low polyreactivity
QVQLVESGGGLVQAGGSLRLSCAASGRTLSAYAMGWYRQAPGKERELVAALRWRGGSTVYAASVKGRFTISRDNAKNPVYLQMHSLKPADTAVYYCNALPGNRRTVYYWGQGTQVTVSS	high polyreactivity
QVQLVESGGGLVQAGGSLRLSCAASGRTLSFYTMGWYRQAPGKERELVAAISSRTGSTYYADSVKGRFTISRDNAKNTVYLQMNRLKPEDTAVYYCAAASRAFAGSGHYYWGQGTQVTVSS	high polyreactivity
QVQLVESGGGLVQAGGSLRLSCAASGRTLSKNAMGWYRQAPGKERELVATISSVGRTNYADSVKGRFTISRDNAKNTVYLQMNSLKPVDTAVYYCAARRFRGSYYWGLGTQVTVSS	high polyreactivity
QVQLVESGGGLVQAGGSLRLSCAASGRTLSRYTMGWYRQAPGKERELVAAISTSGSTYYADSVKGRFTISRDNAKNTVYLQMNSLKPEDTAVYYCYAVRRYLQYATGYDYWGQGTQVTVSS	high polyreactivity
QVQLVESGGGLVQAGGSLRLSCAASGRTLSWYAMGWYRQAPGKERELVAAISYRGVSTYYADSVKGRFTISRDNAKNTVYLQMNSLNPEDTAVYYCAAESWYYSYIVEMEYWGQGTQVTVSS	high polyreactivity
QVQLVESGGGLVQAGGSLRLSCAASGRTLSWYAMGWYRQAPGKERELVASISSGGGTYYADSVKGRFTISRDNAKNTVYLQMNSLKPEDTAVYYCAARYHYAKSPYRYYYWGQGTQVTVSS	high polyreactivity
QVQLVESGGGLVQAGGSLRLSCAASGRTLTFYAMGWYRQAPVKERELVAAISRRAGSTYYADSVKGRFTISRDTAKNTVYLQMNSLKPEDTAVYYCAREPYSASHRYCLYRGYDYWGQGTQVTVSS	low polyreactivity
QVQLVESGGGLVQAGGSLRLSCAASGRTLTGYDMGWYRQAPGKERELVAAITWSGGSTFYADSVKGRFTMSRYNAKNTVYLQMNSLKPEDTAVYYCNVTDVTEPSLIYGYYWGQGTQVTVSS	low polyreactivity
QVQLVESGGGLVQAGGSLRLSCAASGRTLTIYAMGWYRPAPGKERELVAAINWSGGGTYYADSVKGRFTISRDNAKNTVYLQMNRLKPEDTAVYYCAAGRSFRGSYWYEYWGQGTQVTVSS	high polyreactivity

Sequence	polyreactivity (PSR sort gate)
QVQLVESGGGLVQAGGSLRLSCAASGRTLTQNAMGWYRQAPGKERELVATISWTAGSTYYADSVKGRFTISRDNAKNTVYLQMNSLKPEDTAVYYCAAVVFYSIYDYWGQGTQVTVSS	low polyreactivity
QVQLVESGGGLVQAGGSLRLSCAASGRTLVLNMGWYRQAPGKERELVATINSGGSTYYADSVKGRFTISRDNAKNTVYLQMNSLKPEDTAVYYCAVLSSDGKFDYWGQGTQVTVSS	low polyreactivity
QVQLVESGGGLVQAGGSLRLSCAASGRTLVLNMGWYRQAPGKQRELVATINSGGSTYYADSVKGRFTISRANAKNTVYLQMNSLKPEDSAVYYCAVLSSDGKFDYWGQGSQVTVSS	low polyreactivity
QVQLVESGGGLVQAGGSLRLSCAASGRTLVPYAMGWYRQAPGKERELVAAINSSGGSTYYADSVKGRFTISRDNEKNTVYLQMNSLKPEDTAVYYCNVQSVHFRLWKDNYWGQGTQVTVSS	high polyreactivity
QVQLVESGGGLVQAGGSLRLSCAASGRTLVRNAMGWYTQAPGKEREFVAGITESGDRTSYADSVKGRFTISRDNAKNTVYLQMNSLKPEDTAVYFCAASRPWDFYSFGFDYWGQGTQVTVSS	high polyreactivity
QVQLVESGGGLVQAGGSLRLSCAASGRTLVWYTMGWYRQAPGKEREFVAVITTGSGSTYYADSVKGRFTISRDNAKNTVYLQMNSLKPEDTAVYYCNAGYGGYSYHYPPYEYWGQGTQVTVSS	low polyreactivity
QVQLVESGGGLVQAGGSLRLSCAASGRTLVYAMGWYRQAPGKERELVATIYRGGNTYYADSVKGRFTISRDNAKNTVYLQMNSLKPEDTAVYYCNKPTYQWGQGTQVTVSS	high polyreactivity
QVQLVESGGGLVQAGGSLRLSCAASGRTLVYNAMGWYRQAPGKERELVAAITTDGGDTYYADSVKGRFTISRDNAKNTVYLQMNSLKPEDTAVYYCAADYVALYYWYDYWGQGTQVTVSS	low polyreactivity
QVQLVESGGGLVQAGGSLRLSCAASGRTLWANAMGWYRQAPGKERELVAAITYSGGSTHYADSVKGRFTISRDNAKNTVYLQMNSLKPEDTAVYYCNADYDSYYTYLYDYWGQGTQVTVSS	low polyreactivity
QVQLVESGGGLVQAGGSLRLSCAASGRTLWLYTMGWYRQATGKERELVARSRSGGSTYYADSVKGRFTISRDNAKNTVYLQMNSLKPEDTAVYYCAAFPYWIHYEHYYWGQGTQVTVSS	high polyreactivity
QVQLVESGGGLVQAGGSLRLSCAASGRTLWYYTMGWYRQAPGKERELVADITRGTSTNYADSVKGRFTISRDNAKNSVYLQMNSLKPEDTAVYYCNRAHGRSRYSRDYESWGQGTQVTVSS	low polyreactivity
QVQLVESGGGLVQAGGSLRLSCAASGRTLWYYTMGWYRQAPGKERELVAVISTSGGRTYYADSVKGRFTISRDNAKNTVYLQMNSLKPEDTAVYYCAADGFQYTLGNYYWGQGTQVTVSS	high polyreactivity
QVQLVESGGGLVQAGGSLRLSCAASGRTLYGNTMGWYRQAPGKERELVAAITNRGGSTTYADSVKGRFTISRDNAKNTVYLQMNSLKPEDTAVYYCNKDVTPLHYDSWGQGTQVTVSS	high polyreactivity
QVQLVESGGGLVQAGGSLRLSCAASGRTLYGYAMGWYRQAPGKEREFVAAISRSGGRTYYADSVKGRFTISRDNAKNTVYLQMNSLKPEDTAVYYCAARQYQAKQPYGYYPGYGYWGQGTQVTVSS	high polyreactivity
QVQLVESGGGLVQAGGSLRLSCAASGRTLYNYAKGWYRQAPGKERELDASITWSGGSTYYADSVKGRFTISRDYANNTVYLQMNSLKPEDTAVYYCAAESSPGTFVRYGYRRYYYWGQGTQVTVSS	low polyreactivity
QVQLVESGGGLVQAGGSLRLSCAASGRTLYPYAMGWYRQAPGKERELVATITWGDGSTSYADSVKGRFTISRDNAKNTVYLQMNSLKPEDTAVYYCNVRISNTSYRYPTFDYWGQGTQVTVSS	low polyreactivity
QVQLVESGGGLVQAGGSLRLSCAASGRTLYRNAMGWYRQAPGKERELVAAIKMRGGSTYADSVKGRFTISRDNAKNTVYLQMNSLKPEDTAVYYCAAASRSPYYYWGQGTQVTVSS	high polyreactivity
QVQLVESGGGLVQAGGSLRLSCAASGRTLYRYAMGWYRQAPGKERELVAAIRSGGRTNYADSVKGRFTISRDNAKNTVYLQMNSLKPEDTAVYYCAARTLRYPSTYDYWGQGTQVTVSS	high polyreactivity
QVQLVESGGGLVQAGGSLRLSCAASGRTLYSYAMGWYRQAPGKERELVAAITSGGRTYYADSVKGRFTISRDNAKNTVYLQMNRLTPEDTAVYYCNDRRTFPRYDRNYESWGQGTQVTVSS	high polyreactivity
QVQLVESGGGLVQAGGSLRLSCAASGRTLYVYTMGWYRQAPGKERELVASISSGVGTNYADSVKGRFTISRDNAKNTVYLQMNSLKPEDTAVYYCAARFRYYRHYYWGQGTQVTVSS	high polyreactivity
QVQLVESGGGLVQAGGSLRLSCAASGRTLYYYGMGWYRQAPGKERELVASITNGGNTNYADSVKGRFTISRDNAKNTVYLQMNSLKPEDTAVYYCAKDVPYWRPVVRYDYWGQGTQVTVSS	low polyreactivity
